Test results from US20160207996A1 (ARGEN X N V, published 2016).
Positions count from the first letter of the chain named.

T1: hNav1.7-loopB1-C1-D1-llama Fc (human)
T1 construct: whole entry: loops B1, C1, D1 joined by linkers, llama Fc; also called hNav1.7-loopB1-C1-D1-llfc
T1 chain: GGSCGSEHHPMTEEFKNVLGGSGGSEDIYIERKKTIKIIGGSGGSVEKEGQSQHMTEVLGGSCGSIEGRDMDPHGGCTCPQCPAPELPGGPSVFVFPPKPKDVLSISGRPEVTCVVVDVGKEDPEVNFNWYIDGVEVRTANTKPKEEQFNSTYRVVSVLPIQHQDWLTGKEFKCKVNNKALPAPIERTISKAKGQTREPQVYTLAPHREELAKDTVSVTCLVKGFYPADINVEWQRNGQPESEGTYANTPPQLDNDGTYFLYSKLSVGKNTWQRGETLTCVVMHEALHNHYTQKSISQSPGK

T2: hNav1.5-loopA3-llFc (human)
T2 construct: also called Nav1.5 extracellular loop A3 llamaFc chimera
T2 chain: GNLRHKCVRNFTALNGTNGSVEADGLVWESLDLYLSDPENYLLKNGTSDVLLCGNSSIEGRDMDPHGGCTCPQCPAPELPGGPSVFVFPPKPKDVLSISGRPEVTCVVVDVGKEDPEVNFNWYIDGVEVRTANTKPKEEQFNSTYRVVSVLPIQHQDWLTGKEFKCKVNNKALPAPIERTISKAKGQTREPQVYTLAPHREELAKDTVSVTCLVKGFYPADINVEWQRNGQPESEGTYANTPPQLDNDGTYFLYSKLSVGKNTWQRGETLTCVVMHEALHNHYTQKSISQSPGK

T3: hNav1.7-loopA3-llama Fc fusion (human)
T3 construct: also called hNav1.7-loopA3-llFc; loopA3-llamaFc chimera
T3 chain: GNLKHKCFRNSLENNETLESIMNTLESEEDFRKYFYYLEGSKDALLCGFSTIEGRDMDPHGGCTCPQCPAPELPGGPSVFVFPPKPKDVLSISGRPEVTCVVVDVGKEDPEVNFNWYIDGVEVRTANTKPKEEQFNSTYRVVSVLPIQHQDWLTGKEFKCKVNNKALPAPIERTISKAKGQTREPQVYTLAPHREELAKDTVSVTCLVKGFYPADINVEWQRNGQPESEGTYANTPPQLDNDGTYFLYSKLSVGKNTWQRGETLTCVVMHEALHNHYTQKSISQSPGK

T4: ratA3-llFc (rat)
T4 construct: also called rat Nav1.7 loopA3 llamaFc chimera
T4 chain: T3 chain with N10K, S11E, N14E, L25A, D30E, F31L, R32K

T5: mouse A3-llamaFc (mouse, UniProt Q62205 269-319)
T5 construct: also called wild-type mouse A3 loop; not shown: linker and llama Fc of the A3-llamaFc construct
T5 sequence: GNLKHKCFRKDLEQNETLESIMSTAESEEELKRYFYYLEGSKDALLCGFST

B1: 8B6 (antibody, human IgG1, V domains shown)
VH: EVQLQESGPGLVKPSQTLSLTCTVSGGSISTSGTGWSWIRQPPGKGLEWMGIIGYDGGTYYNPSLKSRTSISRDTSKNQFSLQLTSVTPEDTAVYYCARGLGPWGQGIQVTVSS
VL: DIQMTQSPSSLSASLGDRVTITCQASQGISKYLAWYQQKPGQAPKLLIYSASRLETGVPSRFSGSGSGTTFTLVISGLEAEDAGSYYCQQYYRAPATFGQGTKVELK
B2: 8A7 (antibody, human IgG1, V domains shown)
VH: EVQVQESGPGLVTPSQTLSLTCTVSGGSIKNNYYYWNWIRQPPGKGLEWMGAIAYSGSTYYSPSLQSRTSISRDTSKNQFTLQLSSVTPEDTAVYYCARVPSVFGLPYGGMNYWGKGTLVTVSS
VL: SYELTQSPSVTVALRQTAKITCGGSRIGSKSVQWYQQKPGQVPVLVIYADNRRPSRIPERFSGSNSGNTATLIISGAQAEDEADYYCQVWDSSAAVFGGGTHLTVLG
notes: also called mAb 8A7

Experiments:
[1] = target: human Nav1.7 (full length) (human) (UniProt Q15858); assay: cell-based or functional assay
[2] = target: T1, hNav1.7-loopB1-C1-D1-llama Fc; assay: binding ELISA on coated loop-llama Fc chimera (20 ng/well), OD620
Procedure: For all DNA-immunization derived mAbs the binding affinity for the various hNav1.7-loop-llama Fc chimeras was tested in a binding ELISA. Therefore, a Maxisorp plate (Nunc) was coated with 20 ng/well of hNav1.7-loopA3-llama Fc, hNav1.7-loopB1-C1-D1-llama Fc or hNav1.7-loopC3-llama Fc. Remainder of the ELISA setup is as described above. […] Only at very high concentration minor cross-reactivity is observed for some clones.

[3] = target: T6, GST-tagged hNav1.7-loopA3 (human, UniProt Q15858 269-339); assay: binding ELISA on coated GST-tagged hNav1.7 loop A3 peptide, OD620
T6 construct: monomeric GST-tagged peptide; also called hNav1.7-loopA3-GST; Nav1.7-loopA3-GST; not shown: GST tag
From the text: (§1) The therapeutic potency of an anti-hNav1.7 antibody will highly depend on the lack of binding to other Nay family members. Of particular interest is hNav1.5, which is expressed on cardiac muscle cells. As such, cross-reactive binding of hNav1.7 antibodies to hNav1.5 could lead to heart failure. To assay the specificity of the mAbs derived from DNA immunization for hNav1.7, the corresponding loopA3 and loopB1-C1-D1 sequences of hNav1.5 were cloned as llamaFc chimera and cross-reactivity was determined using a binding ELISA (FIG. 8). All clones, except clone 9A6 and 9H4, show no cross-reactivity to hNav1.5. In addition, cross reactivity for hNav1.2 was tested for the loopA3-binding clones 8A7 and 8B6 using hNav1.2 and hNav1.7 derived monomeric, GST-tagged loopA3 peptides (Abnova, H00006326-Q01 (hNav1.2) and H00006335-Q01 (hNav1.7)). Again, no cross-reactive binding was observed.

hNav1.5-loopA3-llFc = target: T2, hNav1.5-loopA3-llFc; assay: binding ELISA on coated hNav1.5 loop A3-llama Fc, OD620
From the text: as §1

[4] = target: T3, hNav1.7-loopA3-llama Fc fusion; assay: ELISA, coated loopA3-llama Fc 10 ng/well, mAb titrated
Procedure: In a next experiment, the binding affinity of the loop-specific mAbs was determined and compared to reference mAbs as described in US2011/0135662 (for loop A3: UCB_932, for loopB1-C1-D1: UCB_983, for loopC3: UCB_1066; US2011/0135662). Affinities were determined using an ELISA with a loop-coating of 10 ng/well (loopA3-llama Fc), 20 ng/well (loop-B1-C1-D1-llama Fc) or 50 ng/well (loopC3-llama Fc). The remainder of the experimental setup was identical to abovementioned binding ELISAs. Most of the mAbs show pM affinity for the respective hNav1.7 extracellular loop they are binding. […] The EC₅₀ for the reference mAbs could not be determined (nd) from the ELISA data available because the binding was too weak.

[5] = target: T7, GST-tagged hNav1.2-loopA3 (human, UniProt Q99250 273-362); assay: binding ELISA on coated GST-tagged hNav1.2 loop A3 peptide, OD620
T7 construct: bought (Abnova); monomeric; also called hNav1.2 derived monomeric GST-tagged loopA3 peptide; Abnova H00006326-Q01; not shown: GST tag
From the text: as §1

ratA3-llFc = target: T4, ratA3-llFc; assay: binding ELISA on coated rat Nav1.7 loop A3-llama Fc, OD620
Mouse A3 mut1 = target: T8, Mouse A3 mut1 (mouse-human chimera, UniProt Q62205 269-319); assay: binding ELISA of mAb 8A7 on coated loop A3-llama Fc chimeras, OD450
T8 construct: also called mouse A3 mut1 loop; not shown: linker and llama Fc of the A3-llamaFc construct

mouse A3-llamaFc = target: T5, mouse A3-llamaFc; assay: as above
[6] = target: T3, hNav1.7-loopA3-llama Fc fusion; assay: as above

T7 sequence (Q99250 273-362 limits assumed): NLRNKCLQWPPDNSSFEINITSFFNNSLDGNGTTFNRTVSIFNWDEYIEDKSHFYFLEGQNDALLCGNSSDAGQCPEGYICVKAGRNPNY

Binder | % inhibition of inward current following P02 voltage protocol, 10 µg/ml [1] | % inhibition of inward current following P02 voltage protocol, 25 µg/ml [1] | % inhibition of inward current following P02 voltage protocol, 100 µg/ml [1] | binding result [2] | EC50 (read off the curve) [3] | binding result (hNav1.5-loopA3-llFc) | EC50 [4] | binding result [5] | EC50 (read off the curve) (ratA3-llFc) | binding result (Mouse A3 mut1) | binding result (mouse A3-llamaFc) | EC50 (read off the curve) [6]
B1 | 30.2% | 58.4% | 72.2% | no binding (tested: about 66 nM) | ~0.5 nM | no binding (tested: about 66 ng/ml (axis as labelled)) | 0.37 nM | no binding (tested: about 130 nM) | ~0.6 nM | – | – | –
B2 | 4% | 33.3% | 47.6% | – | – | no binding (tested: about 66 ng/ml (axis as labelled)) | 0.23 nM | no binding (tested: about 130 nM) | – | no binding (tested: about 33 nM) | no binding (tested: about 33 nM) | ~0.08 nM
